Assay results taken from the DeepSol protein solubility set.

Test: soluble on expression in E. coli; label from the status in PepcDB or PDB records

| Sequence | soluble on expression in E. coli |
| --- | --- |
| MAHHHHHHMSLADEVPREWASSIRPFLQRADEFQERVPVVAYFLRTHAVYLAMKMWRKEDGPGKAFIVKLLDTLESEKKRLEQELADVDGRVLLTQYALRIFSRADDEERSDGVVANMNLVRLFFTASLLFEATAQFTDDGTLDPIATEKRDYARYIAVEMKKAMDKGVPYVSPNRTGGMVESNKEHEGESTGGGGFSTNFVQSQQPGYGQWSAQYVTPQPPPPSHEPPETPMWSGPESTNTSSTQQQQQSTPLFQTTAQPNNSNDNSNIAAAVSGVAAPKGPTMDAIIEAQNYAKQAVSALQFYDHEVACKMLRSALDLLAQR | soluble |
| MTARIYKPAKNAMQSGTAKTREWQLDYEPETPRTIEPLMGWTSSSDMQQQVSLRFHTRDEAVAYCEREGIPYQLIEPKEPVRRRAAYADNFAFRRPEPWTHLEHHHHHH | not soluble |
| GSADETLCQTKVLLDIFTGVRLYLPPSTPDFSRLRRYFVAFDGDLVQEFDMTSATHVLGSRDKNPAAQQVSPEWIWACIRKRRLVAPC | soluble |
| MCELDILHDSLYQFCPELHLKRLNSLTLACHALLDCKTLTLTELGRNLPTKARTKHNIKRIDRLLGNRHLHKERLAVYRWHASFICSGNTMPIVLVDWSDIREQKRLMVLRASVALHGRSVTLYEKAFPLSEQFQRKLMTNFLEHHHHHH | not soluble |
| MNSRQMYEKIKERLVAHPHWTFRFDAKQDAMRVEDRRTKKGVTISLPGVIAKWHEQKDEAVREVVYYVEQTLKTMEEDAALSGNERNIYPVIRSASFPTETKEGVPLLFDDHTAETRIYYALDLGKTYRLIDERMLEKDKWSRERVKEIARFNVRSLPTPVKEARVADNVFYFVNPNDGYDASRILNESFLADMRARVEGTMAVAVPHQDVLVIADVRNDIGYDVLAQMTMSFFAGGRVPITALSFLYENGKLEPIFILGKKRRT | not soluble |
| MTNLFVRSGISFVDRSEVLTHIGNEMLAKGVVHDTWPQALIAREAEFPTGIMLEQHAIAIPHCEAIHAKSSAIYLLRPTNKVHFQQADDDNDVAVSLVIALIVENPQQQLKLLRCLFGKLQQPDIVETLITLPETQLKEYFTKYVLDSDE | soluble |
| MQKIKSLMTRQGLKSPQESLSDLGAIESLRVPGKEEFRELREQPSDPQAEQELINSIEQVYFSVDSFDIVKYELEKLPPVLNLQELEAYRDKLKQQQAAVSKKVADLILEKQPAYVKELERVTSLQTGLQLAAVICTNGRRHLNIAKEGFTQASLGLLANQRKRQLLIGLLKSLRTIKTLQRTDVRLSEMLEEEDYPGAIQLCLECQKAASTFKHYSCISELNSKLQDTLEQIEEQLDVALSKICKNFDINHYTKVQQAYRLLGKTQTAMDQLHMHFTQAIHNTVFQVVLGYVELCAGNTDTKFQKLQYKDLCTVCSDLITIHISLL | soluble |
| MDYFPIFCQLQHKACLLVGGGEIAERKARLLLDAGALVTVNACEFTPQFHHWADQGQLSLISGEFVPELLADKWLVIAATDQLSVNALVYQSANQQRIFCNVVDDPKRTSFIMPSIIDRSPIMIAVSSGGKAPVLARLLREKLEALLPQHLGQLAGNLRQRVKQHFTVMTERRRFWEKLLTHDRLAQSLANNDHVQADQHVEQLFSAPLTDRGEVVLVGAGPGDAGLLTLKGLQQIQQADVVVYDRLVSDEVMNLVRRDAERIFVGKQSGHHCVPQEQINQILLQQAQSGKRVVRLKGGDPFIFGRGGEELEELAGYGIPFSVVPGITAASGCSAYSGIPLTHRDHAQSVRLVTGHAKKEGQLDWANLAAEKQTLVFYMGLSQAGEIQQQLIQHGMPATTQVALVENGTSRHQRVVSGELSQLALLSQQVSSPSLIIVGSVVSLREKLNWFSSRHHDDQPKVTECVAHVG | not soluble |
| FGTFKSAITDYHGYEYKNHGYGLALTDTDLLGGSSGSLVFNQDKKISSIYSAATESDSVGYAQLLPVPKDV | not soluble |
| MENKRTLVVALGGNALLKRGEPLEADIQRKNIELAARTIAQLTRQWRVVLVHGNGPQVGLLALQNSAYANVTPYPLDILGAESQGMIGYMLQQALKNHLPEREISVLLTQVEVDANDPAFLNPTKYIGPIYDEAQARALQAEKGWVFKADGNAFRRVVPSPQPKRIVENDAIRALISRDHLVICNGGGGVPVVEKADGYHGIEAVIDKDLSAALLASQIHADALLILTDADAVYLDWGKPTQRPLAQVTPELLREMQFDAGSMGPKVTACAEFVSHCRGIAGIGSLADGQAILAGEKGTLIRCETADVDA | not soluble |
| SEIESDPNDGHHHHHRRLHLDLSVDERSPRHGISELLQKLRPEWKPDDIQIKVFTEGITNQLMGCYVGSMTRDPVLLVRVYGQMTELFMDREKEMEMFRVLHKHGCGPQLYCSFNNGICYEFVRGVVLDDTLLHQPSVYRLIATEMGKIHSIKSGDSGARSAVTPVLWSRLSQFLNLLQSADDPEQQRSSADGETPSLEIIMREMEELKSHLARINSPVVLCHNDLLTKNVIYNQEEGAVKFIDYEYADFNYQAYDIGNHFNEFAGIDNVDSSLYPSDELQFDWLSAYLESFKRCSTGDSAVTQTEVQELYEQVCQFSLVAHLFWCLWALLQAKHSTIDFDFQRYARARFNYYFEKKREFCGLTPP | soluble |
| MSLDPFSIVQDFRSIAGEEALEIAESGEENDNEQFQNWELEAKFWDLVGLLVEYRTSETVDKDINVHSYNSNVVFQKQLLQSNKGIYEIWLIKSWLEANIGIPERPSSLCTTKWSSSMIAGTVKSMDSDSILRDPTTNLQPDDRQNDHAFFVYAFRLLLAGQFEKLTEECEFTDNLTLNLILRGMESYVDPNVDTDMTDEYASQQGIKKHALWRRSVYALSQDPLLDPYEAAIYTYLSGDSPTNLRIDGLDWETELLIYVNQIWNVTMENYLIEHGRVDNDELITDMDTACPSLSQVLNILAAKYPDESEHPIRVLTASVLLNTIEPVMKSSTDMLLDVIKGRDEDNALFNESYLLRILTNLTIFLDIVSPDTIDISNKSKLLTSYISLLSYYGLYDVIPVFVSFLSQEEIVETYSFFLTNLIDPNLRQKQMEISKYLGLPIANILRRTAQRIFEETDQYYIVDSDIELTNEVSEVDQRLMNGVEWLIENGLYTDSIDTIIALSRRFLINGKVKALELFVDNHDVPNLLKEYQLERLSSQEEDHDLKTTELLQYTSLLSTFKKQEEWVKSSQLFNTESNLRSLIKQFKGFSNTIIKLVTTFLVDLIDNEEVNDSDVLYEIRALYTPFLIMELHNNLISASENLKVSTFVQEAIDLSILVANETDKIYLLFQSNGKLTTYLQMVAKASALFGREGHHHHHH | not soluble |
| AISGAKKYFYMQTPYFLPTEQILGAMQTAALAGVDIRLMLPEHADNRVTHLGSCSYLADVLRAGVKVYFYKKGFLHSKLMVSDDMLSTVGSTNLDFRSFEHNFEVNAFMYDMETALQMREIFLQDQRESTQIFLKSWEKRSSRQKAMESVVRLLAPLL | not soluble |
| MVGRVAQGKEPLHPGPRRQPGGARPGADLGPGGGVNPSPRKRVALFTDGACLGNPGPGGWAALLRFHAHEKLLSGGEACTTNNRMELKAAIEGLKALKEPCEVDLYTDSHYLKKAFTEGWLEGWRKRGWRTAEGKPVKNRDLWEALLLAMAPHRVRFHFVKGHTGHPENERVDREARRQAQSQAKTPCPPRAPTLFHEEA | soluble |
| MVKLRIGYPEDPDYQERLEEFEARIARGEKIEPGDWMPAEYRRQLIRMISQHAHSEWVGMLPEGAWITRAPSLRRKLILLAKVQDEAGHGQYLYHAAETLGITREEMVEALLSGKAKYSNIFNYPTLTWADVAIIGWLVDGMAIKNQTMLAQCSYGPYSRAMVRICAEETFHHKQGKEAVLLYAKGSPKQRRMVQDALNRWWWPTLMMAGPHDTDSPHTPLLLRWGIKTKTNDQIRQEFLNEHVPELLDAGLSIPDPDLRYDEKTGNWIHGPIPWDEFWKVIGGEGPMNRHRLQGRRRAHQEGRWVREAMEAYAKRRLAQAAD | soluble |
| TGEKTILKLKRSCLKPELRRIKAIVGLGLSGFTMAITNCTVQIMCNATLQAYGGDLYVGVMTVVNSVREVASLPVSGITQSAQPVLGFNYGAGEYGRVKKA | not soluble |
| MIFENRLALSAMAGVNNAEFCRKQKASLVILGGFNADRRALEAAEKAVKRGRKEFLFGIDGIEGEIKKLGRRKFAVNVRSSSLEGYLNVAELVAEFEGIIEINAHCRQPEFVEIGCGEWLLFNHERLVEIVSKTSRIAPTFVKIRGGHKLDYEKIARKLFDAGCLAIHVDAMIPGGGCDFSLIERISRIGNVIGNNSFVDIESGERIIMAGAKMASAARAVLRDENFFEKMLRSPLLSQPVELSCGRFR | not soluble |
| MGSDKIHHHHHHMSILVPEQVREALDVHVVSFLGGRLNKHWLVDVCGHKLVLRRWAADREDAGYERDLRQAIRASGWPVARDVTALTEIAGELWSLAEFLPGEPHPEKNSAAELSLRGRLMAEFHQVTASLNPGRRKHWRLPDEILSDDHLEQVFEHCPDVRLRRLLFWHLQRGRQLAAGLPWSEQSLQLIHGDFTPWNLLYREGQLSGLLDCEMSRPEYRISEFALSWRGRYDALIHAYHAVSPLSAPEWNMLTPAWWALLLEGAYRNLVSGTEDQGWTAGMLLRRSPLMGIESCPC | not soluble |
| ASASTPHALLLISIDGLRADMLDRGITPNLSHLAREGVRARWMAPSYPSLTFPNHYTLVTGLRPDHHGIVHNSMRDPTLGGFWLSKSEAVGDARWWGGEPVWVGVENTGQHAATWSWPGSEAAIKGVRPSQWRHYQKGVRLDTRVDAVRGWLATDGAQRNRLVTLYFEHVDEAGHDHGPESRQYADAVRAVDAAIGRLLAGMQRDGTRARTNIIVVSDHGMAEVAPGHAISVEDIAPPQIATAITDGQVIGFEPLPGQQAAAEASVLGAHDHYDCWRKAELPARWQYGSHPRIPSLVCQMHEGWDALFPDKLAKRAQRGTRGSHGYDPALPSMRAVFLAQGPDLAQGKTLPGFDNVDVYALMSRLLGIPAAPNDGNPATLLPALRMPPAPDAR | soluble |
| MSLETFLCGKESCNKGYIRHPWYGKKVGYIGDSITDPNCYGDNIKKYWDFLKEWLDITPYVYGVSGRQWNDVPRQAEQLKKEHGEEVDAIVVLMGTNDFNSSVPVGTWFAEKEEQVMAARGETKKLETRKRRVPIMTNDTYKGRINIGLSHLKKLFPDKQIVLLTPLHRSLAEFGEKNVQPDESYQNKCGEYVDAYVQAIKEAGNLWGVPVIDFNSVTGMNPMIEEQLIYFYDSGYDRLHPNTNGQERMAHTLMYQLLSLPASFEGHHHHHH | soluble |
| IGQVNLSARGNFTFARNEIIEYDQVPQVYPWLEKRGTRLNSNKLYIAEGLYTYDDFIINGEGLNRTYELKPGVVSGLSSGVRPGDIKYKDLNGDGKIDSNDQKEDVGNPTVPEVVYGFGFNAEWKGFYAGIFFQGAGNTSTVLGTGADATFFPFQWGVEESAVRSVVADRWTEQNPSQNVMFPRMHSNNFQNNTVASTWWLRDASFLRLKNIELGYNFDKKLLKKLNIEALRFYVQGNNLCVWDHIKMWDPEQGNSNGGFPYPLNRTFTFGLDFTF | not soluble |
| MAEEGYKVVLNVYDLSNGLARQLSTSFLGKPIEAIWHTGVVVYGNEYFFGGGIQSLAAGRTPYGRPVRVVEMGETHIPREVFEDYLRDISPRYTAETYRLLSHNCNNFSNEVAQFLVGAGIPDYILNLPAEVMSSPMGPLIMPMIQNLESTLRTNAAPQATQFVPSSVPPPPPPQNKPGEGSSSSKQEDKAAKAKQGSAADPLGGARGKVQEEVMREFAAIMASGTLRASEAAALAMRRVMERHGNATMQQS | soluble |
| MGSDKIHHHHHHMAGWRTVVVNTHSKLSYKNNHLIFKDSYQTEMIHLSEIDILIMETTDIVLSTMLIKRLVDENILVIFCDDKRLPTAMLMPYYARHDSSLQLSRQMSWIEDVKADVWTSIIAQKILNQSFYLGECSFFEKSQSIMNLYHDLEPFDPSNREGHAARIYFNTLFGNDFSREQDNPINAGLDYGYSLLLSMFAREVVKCGCMTQFGLKHANQFNQFNLASDIMEPFRPIVDRIIYENRQSDFVKMKRELFSMFSETYSYNGKEMYLSNIVSDYTKKVIKSLNSDGNGIPEFRI | not soluble |
